Blank lines part the entries; values can stand above or below the binder they belong to.
Key:
[1] = target: T1, cynomolgous CD8 (as used in SPR) (cynomolgous monkey); test: SPR, Fab
T1 construct: also called cyno CD8

[2] = target: T1, cynomolgous CD8 (as used in SPR); test: SPR (Fab, by paragraph 255)
[3] = target: T2, human CD8 (as used in SPR) (human, UniProt P01732 22-182); test: SPR (Fab, by paragraph 255)
T2 construct: also called huCD8

[4] = target: T3, cynomolgous CD8 on cells (FACS) (cynomolgous monkey); test: FACS
T3 construct: whole, on cells; also called cyno CD8

[5] = target: T4, human CD8 on cells (FACS) (human, UniProt P01732 22-235); test: FACS
T4 construct: whole, on cells
T4 sequence (P01732 22-235): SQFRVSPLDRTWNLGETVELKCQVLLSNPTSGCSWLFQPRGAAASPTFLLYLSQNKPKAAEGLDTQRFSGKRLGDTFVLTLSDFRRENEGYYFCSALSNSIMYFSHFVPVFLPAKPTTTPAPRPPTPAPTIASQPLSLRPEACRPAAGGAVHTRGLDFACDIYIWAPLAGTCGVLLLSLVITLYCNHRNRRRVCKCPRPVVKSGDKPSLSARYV

[6] = target: T5, rhesus CD8 on cells (FACS) (rhesus monkey, UniProt P01732 23-235 (human entry)); test: FACS
T5 construct: also called rhesus monkey CD8
T5 sequence (P01732 other isoform, or with tags, fused parts or gaps limits assumed): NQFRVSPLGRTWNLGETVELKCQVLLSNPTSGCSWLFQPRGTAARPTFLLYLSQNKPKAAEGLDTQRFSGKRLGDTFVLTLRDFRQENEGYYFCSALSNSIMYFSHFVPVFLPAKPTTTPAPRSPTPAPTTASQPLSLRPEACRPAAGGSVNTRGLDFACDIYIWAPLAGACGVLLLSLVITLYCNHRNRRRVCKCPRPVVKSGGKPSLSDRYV

[7] = target: T2, human CD8 (as used in SPR); test: SPR
[8] = target: T1, cynomolgous CD8 (as used in SPR); test: SPR
[9] = target: T6, mouse CD8 on CD8+ cells isolated from mouse blood (mouse, UniProt P01731 28-247); test: FACS with CD8+ cells isolated from mouse blood
T6 construct: whole, on cells
T6 sequence (P01731 28-247): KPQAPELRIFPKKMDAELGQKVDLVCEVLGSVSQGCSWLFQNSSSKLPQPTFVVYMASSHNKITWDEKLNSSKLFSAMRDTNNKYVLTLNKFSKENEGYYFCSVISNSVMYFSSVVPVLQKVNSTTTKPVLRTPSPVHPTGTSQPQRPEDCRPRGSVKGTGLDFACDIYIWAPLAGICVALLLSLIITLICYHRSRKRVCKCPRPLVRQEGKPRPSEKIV

[10] = target: T4, human CD8 on cells (FACS); test: FACS titration on cells carrying human CD8 (legend paragraph 23: CHO cells expressing recombinant human CD8; text paragraph 256: PBMCs)
[11] = target: T7, rat CD8 on CD8+ cells isolated from rat blood (rat, UniProt P07725 27-236); test: FACS with CD8+ cells isolated from rat blood
T7 construct: whole, on cells
T7 sequence (looked up): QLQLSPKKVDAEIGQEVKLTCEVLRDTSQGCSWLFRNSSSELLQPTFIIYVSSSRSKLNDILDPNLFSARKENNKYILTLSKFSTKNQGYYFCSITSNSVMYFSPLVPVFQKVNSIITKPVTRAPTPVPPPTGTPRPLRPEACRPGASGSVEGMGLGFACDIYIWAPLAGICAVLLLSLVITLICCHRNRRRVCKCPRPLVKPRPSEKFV

[12] = target: T2, human CD8 (as used in SPR); test: SPR, Fab

T2 sequence (P01732 22-182): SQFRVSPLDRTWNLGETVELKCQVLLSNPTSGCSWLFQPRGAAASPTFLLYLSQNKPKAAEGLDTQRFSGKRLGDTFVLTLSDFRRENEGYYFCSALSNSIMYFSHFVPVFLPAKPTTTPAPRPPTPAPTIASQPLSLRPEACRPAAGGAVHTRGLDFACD

- fold improvement in binding compared to huOKT8.v1 [1]: 50 fold
- Kd [2]: 103 nM
- Kd [3]: 0.3 nM
- Kd [4]: 44 nM
- Kd [5]: 2 nM
- Kd [6]: 121 nM
- Ratio of KD huOKT8.v1/KD variant for binding to huCD8 [7]: 37 X
B1: huOKT8.v9 (Fab, V domains shown)
VH: EVQLVQSGAEVKKPGASVKVSCKASGFNIKDTYIHWVRQAPGQGLEWIGRIDPANDNTLYASKFQGRATITADTSTSTAYLELSSLRSEDTAVYYCGRGYGYYVFDHWGQGTLVTVSS
VL: DVQITQSPSSLSASVGDRVTITCRTSRSISQYLAWYQEKPGKTNKLLIYSGSTLQSGIPSRFSGSGSGTDFTLTISSLQPEDFATYYCQQHNEFPVTFGQGTKVEIKR
notes: also called OKT.v9 Fab

- Kd [8]: 5250 nM
B2: huOKT8.v1 (antibody, V domains shown)
VH: EVQLVQSGAEVKKPGASVKVSCKASGFNIKDTYIHWVRQAPGQGLEWIGRIDPANDNTLYASKFQGRATITADTSTSTAYLELSSLRSEDTAVYYCGRGYGYYVFDHWGQGTLVTVSS
VL: DVQITQSPSSLSASVGDRVTITCRTSRSISQYLAWYQEKPGKTNKLLIYSGSTLQSGIPSRFSGSGSGTDFTLTISSLQPEDFATYYCQQHNENPLTFGQGTKVEIK

- binding result [9]: no binding
- EC50 (read off the curve) [10]: ~0.8 µg/mL
- binding result [11]: no binding
- fold improvement in binding compared to huOKT8.v1 [1]: 230 fold
- fold improvement in binding compared to huOKT8.v1 [12]: 55 fold
- Kd [2]: 23 nM
- Kd [3]: 0.2 nM
- Kd [4]: 13 nM
- Kd [5]: 2 nM
- Kd [6]: 20 nM
- Ratio of KD huOKT8.v1/KD variant for binding to huCD8 [7]: 37 X
B3: huOKT8.v11 (Fab, V domains shown)
VH: EVQLVQSGAEVKKPGASVKVSCKASGFNIKDTYIHWVRQAPGQGLEWIGRIDPANDNTLYASKFQGRATITADTSTSTAYLELSSLRSEDTAVYYCGRGYGYYVFDHWGQGTLVTVSS
VL: DVQITQSPSSLSASVGDRVTITCRTSRSISQYLAWYQEKPGKTNKLLIYSGSTLQSGIPSRFSGSGSGTDFTLTISSLQPEDFATYYCQQVNEFPPTFGQGTKVEIKR
notes: also called OKT.v11 Fab

- Ratio of KD huOKT8.v1/KD variant for binding to huCD8 [7]: 18 X
B4: huOKT8.v10 (antibody, V domains shown)
VH: EVQLVQSGAEVKKPGASVKVSCKASGFNIKDTYIHWVRQAPGQGLEWIGRIDPANDNTLYASKFQGRATITADTSTSTAYLELSSLRSEDTAVYYCGRGYGYYVFDHWGQGTLVTVSS
VL: DVQITQSPSSLSASVGDRVTITCRTSRSISQYLAWYQEKPGKTNKLLIYSGSTLQSGIPSRFSGSGSGTDFTLTISSLQPEDFATYYCQQHNEFPPTFGQGTKVEIKR
notes: The entries as printed are a Fab heavy chain and a whole kappa light chain

- Ratio of KD huOKT8.v1/KD variant for binding to huCD8 [7]: 210 X
B5: huOKT8.v17 (antibody, V domains shown)
VH: EVQLVQSGAEVKKPGASVKVSCKASGFNIKDTYIHWVRQAPGQGLEWIGRIDPANDNTLYASKFQGRATITADTSTSTAYLELSSLRSEDTAVYYCGRGYGYYVFDHWGQGTLVTVSS
VL: DVQITQSPSSLSASVGDRVTITCRTSRSISKYLAWYQEKPGKTNKLLIYSGSTLQSGIPSRFSGSGSGTDFTLTISSLQPEDFATYYCQQVNEFPVTFGQGTKVEIKR
notes: as for B4

- Ratio of KD huOKT8.v1/KD variant for binding to huCD8 [7]: 210 X
B6: huOKT8.v15 (antibody, V domains shown)
VH: EVQLVQSGAEVKKPGASVKVSCKASGFNIKDTYIHWVRQAPGQGLEWIGRIDPANDNTLYARKFQGRATITADTSTSTAYLELSSLRSEDTAVYYCTRGYGYYVFDTWGQGTLVTVSS
VL: DVQITQSPSSLSASVGDRVTITCRTSRSISQYLAWYQEKPGKTNKLLIYSGSTLQSGIPSRFSGSGSGTDFTLTISSLQPEDFATYYCQQVNEFPVTFGQGTKVEIKR
notes: as for B4

- Ratio of KD huOKT8.v1/KD variant for binding to huCD8 [7]: 73 X
B7: huOKT8.v12 (antibody, V domains shown)
VH: EVQLVQSGAEVKKPGASVKVSCKASGFNIKDTYIHWVRQAPGQGLEWIGRIDPANDNTLYASKFQGRATITADTSTSTAYLELSSLRSEDTAVYYCGRGYGYYVFDHWGQGTLVTVSS
VL: DVQITQSPSSLSASVGDRVTITCRTSRSISQYLAWYQEKPGKTNKLLIYSGSTLQSGIPSRFSGSGSGTDFTLTISSLQPEDFATYYCQQVNEFPVTFGQGTKVEIK

From patent US20200172620A1 (Genentech, published 2020)
